Target: Pex5L, a longer isoform of Pex5 (Chinese hamster, ClPex5L) (Chinese hamster, UniProt Q920N5 1-640)
Test: pull-down; GST-Pex14 variants (2 μg) on glutathione-Sepharose beads incubated with EGFP-PTS1 (4 μg) or HA-catalase (4 μg) in the presence of Pex5L (2 μg) 2 h at 4°C; 50 mM Tris-HCl pH 7.5, 0.15 M NaCl, 1% Triton X-100, 10% glycerol; immunoblot
Details: both partners purified

binding result: binds
B1: HA-catalase (human, HA-HsCatalase) (enzyme)
chain: MADSRDPASDQMQHWKEQRAAQKADVLTTGAGNPVGDKLNVITVGPRGPLLVQDVVFTDEMAHFDRERIPERVVHAKGAGAFGYFEVTHDITKYSKAKVFEHIGKKTPIAVRFSTVAGESGSADTVRDPRGFAVKFYTEDGNWDLVGNNTPIFFIRDPILFPSFIHSQKRNPQTHLKDPDMVWDFWSLRPESLHQVSFLFSDRGIPDGHRHMNGYGSHTFKLVNANGEAVYCKFHYKTDQGIKNLSVEDAARLSQEDPDYGIRDLFNAIATGKYPSWTFYIQVMTFNQAETFPFNPFDLTKVWPHKDYPLIPVGKLVLNRNPVNYFAEVEQIAFDPSNMPPGIEASPDKMLQGRLFAYPDTHRHRLGPNYLHIPVNCPYRARVANYQRDGPMCMQDNQGGAPNYYPNSFGAPEQQPSALEHSIQYSGEVRRFNTANDDNVTQVRAFYVNVLNEEQRKRLCENIAGHLKDAQIFIQKKAVKNFTEVHPDYGSHIQALLDKYNAEKPKNAIHTFVQSGSHLAAREKANL
notes: catalase, human (HsCatalase), amplified from pUcD3/HA-HsCatalase (Otera and Fujiki, 2012) and cloned into pGEX6P-1; source: E. coli DH5α, purified as GST fusion with glutathione-Sepharose beads, isolated by cleaving with PreScission protease

Reference: publication doi:10.1101/2020.05.01.072132, “Peroxisome counteracts oxidative stresses by suppressing catalase import via Pex14 phosphorylation” (bioRxiv, 2020)
